Consider four substances from article PMC4506781.

Holding throughout (experiment): cross-linking
Assay [1] concerns the target CA A14C/E45C in isolated HIV-1 cores (R9.A14C/E45C) (HIV-1).
Assay [2] deals with CA P207C/T216C in isolated HIV-1 cores (R9.P207C/T216C) (HIV-1).
For assay [3], the target named is HIV-1 CA A14C/E45C, assembled into tubes (HIV-1).
The target in assay [4] is HIV-1 CA P207C/T216C, assembled into tubes (HIV-1).

A word on the stoichiometry N: it is a count of units in the complex or per binding partner. In turn, “CA A14C/E45C in isolated HIV-1 cores (R9.A14C/E45C) (natural protein)” had a stoichiometry N in assay [1] of 6.
Substance “CA P207C/T216C in isolated HIV-1 cores (R9.P207C/T216C) (natural protein)” displayed a stoichiometry N in assay [2] of 3.
Take “HIV-1 CA A14C/E45C, assembled into tubes (natural protein)”: the stoichiometry N in assay [3] amounted to 6.
In the case of “HIV-1 CA P207C/T216C, assembled into tubes (natural protein)”, the stoichiometry N in assay [4] worked out at 3.
